Results on 1 substance are retold here after article PMC9323411.

The assay concerns the target CLDmut (CD4-linker-DC-SIGN fusion protein with a linker of 8 Gly4Ser repeats and the Cys-to-Ser back (human) (UniProt P01730)). As to the kind of experiment: BLI. Background: In BLI a coated tip is dipped into the sample, and binding shifts an interference pattern.

Turning to “trimeric HIV-1 CN54 gp140 (domain or fragment)”, the Kd – broadly, the concentration at which binding is half-saturated – turned out to be 0.39 nM; the koff (commonly a measure of how fast the partners let go of each other) amounted to 1.62e-05 s⁻¹; the kon – broadly, the rate constant with which the complex forms – is 41100 M⁻¹ s⁻¹.
